Assay results taken from patent US20110039758A1.
“And” between values parts separate entries of the source, which are not always exact repeats. Identical values can stand only once. Ends that are not written are not given here.

Key:
Assay in all cases: G assay
[1] = molecular target: GST-NOS1 (nNOS) PDZ domain (human)
[2] = molecular target: GST-PSD95 PDZ domain 1 (human)
[3] = molecular target: GST-PSD95 PDZ domain 2 (human)
[4] = molecular target: GST-PSD95 PDZ domain 3 (human)

In the case of VHKVRNKFKAKCSLCRLYII (modifications not checked) [HPV-E6 #63 PL peptide], the Average OD [1] is reported as 2.55 OD and 4 OD, the Average OD [2] is reported as 4 OD and 2.67 OD and the Average OD [3] is reported as 4 OD and 2.62 OD. The Average OD [4] was 4 OD.

LNSCSNRRVYKKMPSIESDV (modifications not checked) [NMDAR2A C-terminal 20mer peptide] was tested, and the Average OD [2] was 4.07 OD and 4 OD.

In the case of RELVDRGEVRQFTLRHWLKV (modifications not checked) [Dopamine transporter PL peptide], the Average OD [1] is reported as 1.38 OD and 1.27 OD and 1.1 OD.

In the case of ELLQFCRTPNPALKNGQYWV (modifications not checked) [CSPG4 (chondroitin sulfae proteoglycan 4, melanoma-associated) PL peptide], the Average OD [1] is reported as 2.43 OD and 1.27 OD.

For SSPDSSYQGKGFVMSRAMYV (modifications not checked) [Nectin 2 PL peptide], the Average OD [1] was 0.54 OD, the Average OD [2] was 1.01 OD and the Average OD [4] was 0.91 OD.

YGRKKRRQRRRKLSSIESDV (not fully specified) [[…] (Tat transporter fused to the C-terminal 9 amino acids of NMDA Receptor 2B)] was tested, and the Average OD [2] was 3.87 OD and 2.13 OD and 1.4 OD and the Average OD [3] was 4.06 OD and 3.53 OD and 3.1 OD.

With GRWTGRAMSAWKPTRRETEV (modifications not checked) [HPV E6 #35 (cysteine-free) PL peptide] the Average OD [1] was 0.74 OD and 0.62 OD, the Average OD [2] was 4 OD and 3.08 OD and the Average OD [3] was 2.82 OD. It also gave an Average OD [4] of 4 OD.

In the case of TQGFPGPATWRRISSLESEV (modifications not checked) [NMDA Glutamate Receptor 2C (cysteine-free) C-terminal 20mer peptide], the Average OD [1] is reported as 0.49 OD, the Average OD [3] is reported as 3.56 OD and 2.89 OD and 2.07 OD and the Average OD [4] is reported as 1.46 OD and 1.17 OD.

For GGDLGTRRGSAHFSSLESEV (modifications not checked) [NMDAR2D C-terminal 20mer peptide], the Average OD [2] was 0.86 OD and 0.77 OD and the Average OD [3] was 3.11 OD and 2.22 OD and 1.31 OD.

For QDFRRAFRRILARPWTQTAW (modifications not checked) [a-2B Adrenergic receptor PL peptide], the Average OD [1] was 3.54 OD and 2.52 OD, the Average OD [2] was 1.59 OD and 0.87 OD and the Average OD [4] was 3.74 OD and 2.98 OD.

With HHLVAQRDIRQFQLQHWLAI (modifications not checked) [noradrenaline transporter PL peptide] the Average OD [1] was 1.08 OD and the Average OD [4] was 0.82 OD and 0.7 OD.

Work on RSGATIPLVGQDIIDLQTEV (modifications not checked) yielded an Average OD [3] of 1.23 OD.

In the case of HSCCNRARQERLQRRRETQV (modifications not checked) [HPV-E6 #18 PL peptide], the Average OD [1] is reported as 2.14 OD.

In the case of PYSELNYETSHYPASPDSWV (modifications not checked) [catenin-delta 2 PL peptide], the Average OD [1] is reported as 2.1 OD and the Average OD [2] is reported as 1.18 OD.

DGGARTEDEVQSYPSKHDYV (modifications not checked) was tested, and the Average OD [2] was 1.25 OD and the Average OD [4] was 1.05 OD.

In the case of KAGYRAPRSYPKSNSSKEYV (modifications not checked) [claudin 7 PL peptide], the Average OD [1] is reported as 1.01 OD and 0.93 OD, the Average OD [2] is reported as 1.28 OD and 1.08 OD and the Average OD [4] is reported as 0.92 OD and 0.86 OD.

In the case of TTNNNPNSAVNIKKIFTDV (modifications not checked) [KV1.3 PL peptide], the Average OD [1] is reported as 0.67 OD, the Average OD [2] is reported as 2.28 OD and 1.12 OD and the Average OD [3] is reported as 1.06 OD. The Average OD [4] was 1 OD.

In the case of LNSSSNRRVYKKMPSIESAV (modifications not checked), the Average OD [3] is reported as 3.37 OD and 2.67 OD and 2.29 OD.

In the case of SSSQSLESDGSYQKPSYIL (modifications not checked) [CD62E PL peptide], the Average OD [1] is reported as 0.5 OD.

In the case of QISPGGLEPPSEKHFRETEV (modifications not checked) [20 C-terminal amino acids from TAX], the Average OD [3] is reported as 2.39 OD.

With ALVLIAFCIIRRRPSAYQAL (modifications not checked) [CD68 PL peptide] the Average OD [1] was 0.67 OD.

PIPAGGCTFSGIFPTLTSPL (modifications not checked) [KIAA 1481 PL peptide] showed an Average OD [1] of 0.71 OD.

Binder SYPTPRPYPKPAPSSGKDYV (modifications not checked) [claudin 1 PL peptide] has an Average OD [1] of 0.9 OD, an Average OD [2] of 0.95 OD and an Average OD [4] of 0.85 OD.

With TGSALQAWRHTSRQATESTV (modifications not checked) the Average OD [2] was 3.86 OD and the Average OD [4] was 0.78 OD.

For SFTSILTCHQRRTQRKETVA (modifications not checked) [GluR5-2 (rat) PL peptide], the Average OD [1] was 0.65 OD, the Average OD [2] was 3.12 OD and 2.26 OD and the Average OD [4] was 4 OD.

KTMPAAMYRLLTAQEQPVYI (modifications not checked) [MINT-1 PL peptide] was tested, and the Average OD [1] was 4 OD and 3.76 OD.

For PGQPPKVKSEFNSYSLTGYV (modifications not checked) [claudin 2 PL peptide], the Average OD [1] was 0.69 OD, the Average OD [2] was 1.03 OD and 0.85 OD and the Average OD [4] was 0.79 OD.

For HDFRRAFKKILARGDRKRIV (modifications not checked) [alpha-2A Adrenergic receptor PL peptide], the Average OD [1] was 0.96 OD and 0.73 OD.

VDPNSPAAKKKYVSYNNLVI (modifications not checked) [GLUR7 (metabotropic glutamate receptor) PL peptide] was tested, and the Average OD [1] was 0.75 OD and 0.64 OD and 0.59 OD, the Average OD [2] was 0.85 OD and the Average OD [4] was 0.82 OD.

For AWDDSARAAGGQGLHVTAL (modifications not checked) [LPAP PL peptide], the Average OD [1] was 0.77 OD.

In the case of VPSDNIDSQGRNASINDSLL (modifications not checked) [beta-2 Adrenergic Receptor PL peptide], the Average OD [1] is reported as 0.85 OD.

LGYSIPSRSGASGLDKRDYV (modifications not checked) [claudin 9 PL peptide] showed an Average OD [1] of 0.51 OD and an Average OD [2] of 0.82 OD.

In the case of VGTLLLERVIFPSVKIATLV (modifications not checked) [AdenoE4 typ9 PL peptide], the Average OD [1] is reported as 3.64 OD and 2.73 OD and 4 OD.

For RIAYSLLGLKDQVNTVGIPI (modifications not checked) [ephrin A2 PL peptide], the Average OD [1] was 1.83 OD and 4 OD.

With LAVLAYSITLVMLWSIWQYA (modifications not checked) [Serotonin receptor 3a PL peptide] the Average OD [1] was 1.02 OD.

In the case of KDITSDSENSNFRNEIQSLV (modifications not checked), the Average OD [3] is reported as 1.35 OD.

In the case of SSKSKSSEESQTFFGLYKL (modifications not checked) [Fas Ligand PL peptide], the Average OD [1] is reported as 1.99 OD and 1.93 OD, the Average OD [2] is reported as 1.23 OD and the Average OD [4] is reported as 1.07 OD.

DFRPSFKHILFRRARRGFRQ (modifications not checked) [alpha-2C Adrenergic receptor PL peptide] was tested, and the Average OD [1] was 3.02 OD and 2.09 OD, the Average OD [2] was 2.05 OD and 1.26 OD and the Average OD [4] was 1.72 OD and 1.19 OD.

In the case of SPQPDSTDNDDYDDISAA (modifications not checked) [CD6 PL peptide], the Average OD [1] is reported as 0.59 OD.
